The Human Domainome abundance scans (Beltran et al. 2025)

B1: Homeobox protein cut-like 1, residues 548 to 629; numbered along this chain, P39880 (parent)
chain: GEEMDTAEIARQVKEQLIKHNIGQRIFGHYVLGLSQGSVSEILARPKPWNKLTVRGKEPFHKMKQFLSDEQNILALRSIQGR

Variants of: B1
Experiment: abundance fitness (aPCA) (normalised: wild type 0, dead -1); higher = more abundant; growth selection in yeast, the domain comes from the species named
Conditions: Homo sapiens

Abundance fitness: each site, then its substitutions
Q71: Y -0.257, M -0.137, D -0.035, I -0.212, G -0.037, R -0.049, V -0.2, S 0.047, N -0.099, P -0.673, W -0.293, T -0.011, H -0.16, F -0.204, E 0.06, C -0.11
N72: D -0.221, K -0.007, A 0.049, Q 0.03, M -0.132, P -0.432, H -0.063, T -0.115, C -0.098, W -0.131, R -0.137, G -0.04, F -0.143, I -0.289, Y -0.099, V -0.315, L -0.251
I73: C -0.129, H -0.5, A -0.019, R -0.56, T -0.163, W 0.05, P -0.303, M -0.064, D -0.745, F -0.026, V 0.038, Q -0.336, L -0.064, Y -0.627, S 0.005, N -0.51, G -0.44, E -0.637
F66: I -0.573, C -0.963, P -0.77, A -0.758, E -0.887, M -0.648, W 0.116, Q -0.791, R -1.04, S -0.829, G -0.934, N -0.781, H -0.966, L -0.662, K -0.829, Y -0.924
K62: I -0.16, F -0.603, G -0.729, V -0.307, M -0.231, Y -0.522, L -0.12, E -0.506, T -0.305, C -0.413, N -0.532, R -0.126, S -0.443, W -0.749, A -0.201, P -0.989
L76: V -0.357, I -0.291, S -0.697, A -0.638, D -0.716, N -0.856, G -0.806, T -0.752, Q -0.6, P -0.586, C -0.484, M -0.461, K -0.861, E -0.758, R -0.945
Q80: A 0.034, D -0.089, C -0.028
F60: I -0.306, D -0.803, S -0.869, V -0.911, W 0.035, M -0.536, Q -0.761, T -0.835, Y 0.019, R -1.01, E -0.799, G -0.952, P -0.897
Q65: N 0.022, L -0.082, S -0.059, T -0.029, F -0.446, M -0.056, R -0.039, E 0.053, Y -0.169, I -0.096, W -0.201, G -0.232, P -0.933, A -0.02, K -0.076, C -0.172, V -0.117
I79: G -0.203, C 0.003, D -0.233, L 0.028, H -0.009, M 0.046, V 0.015, F -0.086, R -0.065, P -0.229, A -0.047, T -0.157, E -0.058, Q 0.011, W -0.09, K 0.038, Y -0.097
H61: K 0.013, I 0.075, S -0.137, F 0.069, G -0.342, R 0.014, Y 0.067, N -0.11, E 0.021, V 0.009, L 0.071, A -0.07, Q 0.04, C -0.134, W -0.03
D69: V -0.308, I -0.425, R -0.207, F -0.252, N -0.015, L -0.318, W -0.387, A -0.174, M -0.231, P -0.75, G -0.267, K -0.108, E -0.134, H -0.182, T -0.181, Y -0.351
E70: D -0.043, Y -0.152, S -0.083, G -0.126, H 0.001, C -0.118, F -0.213, M -0.139, I -0.187, R -0.055, V -0.154, W -0.217, L -0.307, T -0.121, Q -0.047, A -0.026, N -0.084, P 0.026
A75: R 0.05, L -0.061, C -0.11, M -0.039, V -0.127, P -0.314, W 0.009, T 0.012, I -0.146, D 0.109, F -0.066, S 0.041, E 0.092, K 0.095, Q 0.038, Y -0.027, N 0.187
S78: W -0.201, T 0.005, Y -0.223, C -0.107, F -0.188, I -0.066, H -0.053, G 0.003, V -0.139, K 0.044, A 0.042, P -0.359, E 0.087, D 0.097, M -0.009, R 0.003, N 0.018
S68: I -0.198, K -0.023, Y -0.297, L -0.088, M -0.083, T -0.122, R -0.157, E 0.013, C -0.133, H -0.292, F -0.187, Q -0.049, D -0.02, A -0.041, P -0.656, V -0.304, W -0.4
M63: Y -0.94, F -0.753, W -1.02, R -1, V -0.886, L -0.423, P -0.797, E -0.872, D -0.949, N -1.16, T -0.777, K -0.992, A -0.677, G -1.04, I -0.31, H -1.13
L67: S -1.01, H -1.21, Q -0.978, V -0.243, D -0.876, Y -0.609, R -0.979, W -0.817, G -0.848, K -0.918, I -0.303, M -0.284, N -0.582, A -0.736, C -0.498, F -0.341
K64: D -0.489, E -0.167, N -0.225, V -0.023, L -0.064, C -0.273, W -0.24, A -0.028, P -0.917, M -0.061, R -0.049, T -0.287, F -0.15, S -0.154, G -0.43, H -0.216, Q 0.033, Y -0.112
L74: F -0.028, N -0.064, P -0.417, D -0.019, I 0.032, E 0.008, R -0.041, G -0.159, K 0.029, H 0.007, W -0.098, A -0.039, S -0.083, M -0.074, T -0.087, C -0.162, Y -0.112, V 0.017, Q 0.005
R77: W -0.336, V -0.035, P -0.419, F -0.511, M -0.096, L -0.073, C -0.032, G -0.086, A 0.049, S 0.041, N -0.118, E -0.005, H -0.096, Q 0.018, D -0.292, I -0.116, K 0.103
